Results as given in PMC12005729.

What was measured:
Experiment in all cases: native gel or EMSA + other: dynamic light scattering; self-assembly into the 24-mer cage; DLS at 25 °C, 1 µM protein in 50 mM Tris-HCl, pH 8, 150 mM NaCl
[1] = biological target: Fr‐F1 (Fr‐R59F), mutant of recombinant horse spleen apo‐L ferritin (horse)
[2] = biological target: Fr‐F2 (Fr‐E56F/R59F), mutant of recombinant horse spleen apo‐L ferritin (horse)
[3] = biological target: Fr‐F4 (Fr‐R52F/E56F/R59F/E63F), mutant of recombinant horse spleen apo‐L ferritin (horse)
[4] = biological target: Fr‐F5/59A (Fr‐E53F/E56F/E57F/R59A/E60F/E63F), mutant of recombinant horse spleen apo‐L ferritin (horse)
[5] = biological target: Fr‐F5/59L (Fr‐E53F/E56F/E57F/R59L/E60F/E63F), mutant of recombinant horse spleen apo‐L ferritin (horse)
[6] = biological target: Fr‐F6 (Fr‐E53F/E56F/E57F/R59F/E60F/E63F), mutant of recombinant horse spleen apo‐L ferritin (horse)

“Fr‐F1 (Fr‐R59F), mutant of recombinant horse spleen apo‐L ferritin (natural protein)” was tested, and the stoichiometry N [1] was 24.

Substance “Fr‐F2 (Fr‐E56F/R59F), mutant of recombinant horse spleen apo‐L ferritin (natural protein)” has a stoichiometry N [2] of 24.

“Fr‐F4 (Fr‐R52F/E56F/R59F/E63F), mutant of recombinant horse spleen apo‐L ferritin (natural protein)” gave a stoichiometry N [3] of 24.

“Fr‐F5/59A (Fr‐E53F/E56F/E57F/R59A/E60F/E63F), mutant of recombinant horse spleen apo‐L ferritin (natural protein)” showed a stoichiometry N [4] of 24.

For “Fr‐F5/59L (Fr‐E53F/E56F/E57F/R59L/E60F/E63F), mutant of recombinant horse spleen apo‐L ferritin (natural protein)”, the stoichiometry N [5] was 24.

Work on “Fr‐F6 (Fr‐E53F/E56F/E57F/R59F/E60F/E63F), mutant of recombinant horse spleen apo‐L ferritin (natural protein)” yielded a stoichiometry N [6] of 24.
